Assay results reported in the supplement of paper PMC9112550, “Optimization of the antimicrobial peptide Bac7 by deep mutational scanning” (BMC Biology, 2022).

Tested on: Escherichia coli TOP10
Test: shrunken log2 fold change of peptide-encoding DNA abundance (4.5 h post-induction vs induction); higher = less antimicrobial activity (less host growth inhibition)
Conditions: time post-induction: 4.5 h; library: site-saturation at positions 5, 18, 19, 20
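Also: peptides expressed intracellularly from a pBAD plasmid library in pooled LB shake-flask culture, induced with 0.3% L-arabinose, DNA abundance read by NGS, three biological replicates, DESeq2 with apeglm shrinkage.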

Sequence	shrunken log2 fold change
RRIRNRPPRLPRPRPRPGALPRP	0.0726
RRIRRRPPRLPRPRPRPEMNPRP	0.406
RRIRERPPRLPRPRPRPSNEPRP	-0.17
RRIRQRPPRLPRPRPRPWETPRP	-0.00136
RRIRRRPPRLPRPRPRPTDKPRP	0.0418
RRIRNRPPRLPRPRPRPIMGPRP	-0.0169
RRIRLRPPRLPRPRPRPGATPRP	0.527
RRIRLRPPRLPRPRPRPCNHPRP	-0.0991
RRIRIRPPRLPRPRPRPTKGPRP	0.0205
RRIRNRPPRLPRPRPRPVPHPRP	-0.0692
RRIRWRPPRLPRPRPRPPQSPRP	0.128
RRIRSRPPRLPRPRPRPIQQPRP	-0.0226
RRIRKRPPRLPRPRPRPRQTPRP	0.0644
RRIRDRPPRLPRPRPRPFGYPRP	-0.342
RRIRWRPPRLPRPRPRPDGNPRP	0.276
RRIRDRPPRLPRPRPRPWWIPRP	-0.0075
RRIRARPPRLPRPRPRPDYWPRP	0.139
RRIRTRPPRLPRPRPRPWRMPRP	-0.139
RRIRQRPPRLPRPRPRPCQFPRP	0.0287
RRIRWRPPRLPRPRPRPTENPRP	0.0907
RRIRNRPPRLPRPRPRPIPEPRP	-0.147
RRIRNRPPRLPRPRPRPSVDPRP	-0.0699
RRIRPRPPRLPRPRPRPKVPPRP	0.303
RRIRFRPPRLPRPRPRPGWAPRP	0.187
RRIRKRPPRLPRPRPRPIHNPRP	-0.0348

Sequence	shrunken log2 fold change
RRIRYRPPRLPRPRPRPVYIPRP	-1.27
RRIRVRPPRLPRPRPRPMLCPRP	0.121
RRIRYRPPRLPRPRPRPRIYPRP	-0.569
RRIRNRPPRLPRPRPRPRLYPRP	-0.142
RRIRIRPPRLPRPRPRPCVVPRP	-0.00586
RRIRQRPPRLPRPRPRPNQVPRP	-0.0722
RRIRPRPPRLPRPRPRPDAMPRP	0.319
RRIRKRPPRLPRPRPRPHLIPRP	0.108
RRIRDRPPRLPRPRPRPTAAPRP	0.457
RRIRWRPPRLPRPRPRPYPMPRP	-0.128
RRIRIRPPRLPRPRPRPTSPPRP	0.118
RRIRNRPPRLPRPRPRPFTKPRP	-0.0763
RRIRFRPPRLPRPRPRPLWNPRP	-0.89
RRIRIRPPRLPRPRPRPDAYPRP	-0.0729
RRIRRRPPRLPRPRPRPDDNPRP	0.18
RRIRKRPPRLPRPRPRPLVVPRP	-0.0832
RRIRCRPPRLPRPRPRPTGPPRP	0.669
RRIRARPPRLPRPRPRPKGDPRP	-0.07
RRIRERPPRLPRPRPRPQAQPRP	-0.0773
RRIRHRPPRLPRPRPRPDNVPRP	-0.02
RRIRDRPPRLPRPRPRPGGDPRP	0.908
RRIRYRPPRLPRPRPRPANIPRP	-0.0107
RRIRYRPPRLPRPRPRPCWGPRP	-0.204
RRIRWRPPRLPRPRPRPHATPRP	0.816
RRIRHRPPRLPRPRPRPLAWPRP	0.198

Sequence	shrunken log2 fold change
RRIRDRPPRLPRPRPRPKVGPRP	-0.017
RRIRPRPPRLPRPRPRPHTFPRP	-0.667
RRIRCRPPRLPRPRPRPVHQPRP	0.11
RRIRYRPPRLPRPRPRPEVWPRP	0.446
RRIRTRPPRLPRPRPRPYKTPRP	-0.315
RRIRWRPPRLPRPRPRPFAKPRP	0.382
RRIRERPPRLPRPRPRPMNTPRP	-0.0609
RRIRDRPPRLPRPRPRPIMPPRP	-0.0491
RRIRTRPPRLPRPRPRPYMAPRP	-1.06
RRIRMRPPRLPRPRPRPTTHPRP	0.295
RRIRWRPPRLPRPRPRPFLYPRP	-0.0978
RRIRHRPPRLPRPRPRPFIVPRP	-0.319
RRIRERPPRLPRPRPRPCKVPRP	-0.00382
RRIRYRPPRLPRPRPRPTGWPRP	0.088
RRIRKRPPRLPRPRPRPQLGPRP	0.378
RRIRTRPPRLPRPRPRPPPSPRP	1.16
RRIRHRPPRLPRPRPRPRPKPRP	-0.0808
RRIRYRPPRLPRPRPRPINAPRP	-0.469
RRIRKRPPRLPRPRPRPIVHPRP	-0.42
RRIRLRPPRLPRPRPRPLMLPRP	-0.257
RRIRVRPPRLPRPRPRPPKLPRP	0.0622
RRIRGRPPRLPRPRPRPYHFPRP	-0.041
RRIRTRPPRLPRPRPRPSFGPRP	0.129
RRIRARPPRLPRPRPRPLMHPRP	0.446
RRIRRRPPRLPRPRPRPVGYPRP	0.02

Sequence	shrunken log2 fold change
RRIRSRPPRLPRPRPRPKQVPRP	0.0497
RRIRNRPPRLPRPRPRPQKHPRP	-0.227
RRIRPRPPRLPRPRPRPFVMPRP	-0.201
RRIRCRPPRLPRPRPRPHRQPRP	-0.19
RRIRSRPPRLPRPRPRPPDVPRP	0.14
RRIRNRPPRLPRPRPRPQTRPRP	0.0246
RRIRKRPPRLPRPRPRPHGMPRP	-0.00215
RRIRDRPPRLPRPRPRPVCMPRP	0.219
RRIRHRPPRLPRPRPRPMPNPRP	-0.0341
RRIRYRPPRLPRPRPRPVCQPRP	-0.181
RRIRSRPPRLPRPRPRPLELPRP	0.12
RRIRVRPPRLPRPRPRPKYNPRP	-0.658
RRIRERPPRLPRPRPRPHNWPRP	-0.363
RRIRRRPPRLPRPRPRPAWTPRP	1.74
RRIRRRPPRLPRPRPRPMHVPRP	0.281
RRIRNRPPRLPRPRPRPNVDPRP	0.112
RRIRLRPPRLPRPRPRPSAYPRP	0.0888
RRIRARPPRLPRPRPRPDSFPRP	-0.0867
RRIRWRPPRLPRPRPRPSMTPRP	0.178
RRIRSRPPRLPRPRPRPSKYPRP	-0.345
RRIRTRPPRLPRPRPRPSPMPRP	-0.163
RRIRARPPRLPRPRPRPYPIPRP	-0.249
RRIRPRPPRLPRPRPRPILHPRP	-0.277
RRIRSRPPRLPRPRPRPMGNPRP	0.0909
RRIRSRPPRLPRPRPRPINWPRP	-0.161

Sequence	shrunken log2 fold change
RRIRTRPPRLPRPRPRPDEQPRP	0.0127
RRIRHRPPRLPRPRPRPNTDPRP	-0.438
RRIRSRPPRLPRPRPRPFIWPRP	-0.297
RRIRARPPRLPRPRPRPFEYPRP	-0.0276
RRIRYRPPRLPRPRPRPIFYPRP	-0.638
RRIRPRPPRLPRPRPRPASIPRP	-0.228
RRIRYRPPRLPRPRPRPYRHPRP	-1.4
RRIRLRPPRLPRPRPRPKYYPRP	-1.1
RRIRCRPPRLPRPRPRPQHHPRP	-0.46
RRIRMRPPRLPRPRPRPQMCPRP	-0.239
RRIRTRPPRLPRPRPRPSYIPRP	-0.511
RRIRHRPPRLPRPRPRPAWSPRP	-0.0185
RRIRHRPPRLPRPRPRPWHYPRP	0.137
RRIRSRPPRLPRPRPRPWIAPRP	-0.181
RRIRARPPRLPRPRPRPWMPPRP	-0.216
RRIRPRPPRLPRPRPRPEEDPRP	0.192
RRIRLRPPRLPRPRPRPVRTPRP	0.175
RRIRDRPPRLPRPRPRPPESPRP	0.822
RRIRDRPPRLPRPRPRPKKGPRP	0.26
RRIRERPPRLPRPRPRPVDDPRP	0.133
RRIRYRPPRLPRPRPRPYPNPRP	-0.36
RRIRERPPRLPRPRPRPTVGPRP	-0.116
RRIRHRPPRLPRPRPRPSQQPRP	-0.031
RRIRPRPPRLPRPRPRPMNCPRP	-0.138
RRIRHRPPRLPRPRPRPQDWPRP	0.0899
